Results on one substance are retold here after publication PMC6154995, “Heme-dependent Inactivation of 5-Aminolevulinate Synthase from Caulobacter crescentus” (Scientific Reports, 2018).

This data set has as its system CC(C)(COP(=O)(O)OP(=O)(O)OC[C@H]1O[C@@H](n2cnc3c(N)ncnc32)[C@H](O)[C@@H]1OP(=O)(O)O)[C@@H](O)C(=O)NCCC(=O)NCCSC(=O)CCC(=O)O. Description: purified protein. The settings on record: PLP.

For “5-aminolevulinate synthase (cALAS) (Caulobacter vibrioides CB15)”, the Km stood at 2.42 ± 0.32 µM.

A word on the Km: it is the substrate concentration at which the rate is half of its maximum.
